Source: paper PMC1977788 (1992)

How the values were obtained:
EGFR [1] = biological target: T1, EGFR (Homo sapiens, UniProt P00533); test: 125I-EGF whole-cell saturation binding, ZR-75-1 cells, Woolf analysis
EGFR [2] = biological target: T1, EGFR; test: 125I-EGF whole-cell saturation binding, ZR-75-9a1 FCSdcc 2 years, Woolf analysis
EGFR [3] = biological target: T1, EGFR; test: 125I-EGF whole-cell saturation binding, ZR-75-9a1 FCSdcc 1 week, Woolf analysis
EGFR [4] = biological target: T1, EGFR; test: 125I-EGF whole-cell saturation binding, ZR-75-9a1 8 uM cells, Woolf analysis
EGFR [5] = biological target: T1, EGFR; test: 125I-EGF whole-cell saturation binding, ZR-PR-LT cells, Woolf analysis
EGFR [6] = biological target: T1, EGFR; test: 125I-EGF whole-cell saturation binding, ZR-PR-LT cells + suramin pretreatment, Woolf analysis
EGFR [7] = biological target: T1, EGFR; test: 125I-EGF whole-cell saturation binding, ZR-75-9a1 FCSdcc 4 weeks, Woolf analysis
EGFR [8] = biological target: T1, EGFR; test: 125I-EGF whole-cell saturation binding, ZR-PR-LT cells + acid wash, Woolf analysis
EGFR [9] = biological target: T1, EGFR; test: 125I-EGF whole-cell saturation binding, ZR-75-9a1 FCSdcc 2 weeks, Woolf analysis

Kd (EGFR [1]): 230 pM
Kd (EGFR [2]): 180 pM
Kd (EGFR [3]): 370 pM
Kd (EGFR [4]): 190 pM
Kd (EGFR [5]): 260 pM
Kd (EGFR [6]): 310 pM
Kd (EGFR [7]): 140 pM
Kd (EGFR [8]): 210 pM
Kd (EGFR [9]): 280 pM
B1: EGF (protein)
chain: NSYPGCPSSYDGYCLNGGVCMHIESLDSYTCNCVIGYSGDRCQTRDLRWWELR
